Data from publication PMC8564274 (Signal Transduction and Targeted Therapy, 2021).

Target: SARS-CoV-2 receptor-binding domain (RBD) (SARS-CoV-2, UniProt P0DTC2)
Assay: BLI
Conditions: both partners purified

B1: CB6 (antibody, V domains shown)
VH: EVQLVESGGGLVQPGGSLRLSCAASGFTVSSNYMSWVRQAPGKGLEWVSVIYSGGSTFYADSVKGRFTISRDNSMNTLFLQMNSLRAEDTAVYYCARVLPMYGDYLDYWGQGTLVTVSS
VL: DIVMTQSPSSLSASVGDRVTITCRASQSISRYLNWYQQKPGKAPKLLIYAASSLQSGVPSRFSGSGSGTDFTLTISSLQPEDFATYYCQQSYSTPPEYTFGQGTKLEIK
B1: binds.
